Assay [1] addresses N-terminal peptidase domain of wild-type human ACE2 (residues Met1-Asp615) (human, UniProt Q9BYF1 18-615). The assay is described as follows: SPR.
In assay [2] the target is N-terminal peptidase domain of human ACE2 [change] variant (residues Met1-Asp615) (human, UniProt Q9BYF1 18-615). The assay is described as follows: SPR. In general terms: In SPR one partner is held on a chip, and binding of the other changes the refractive index at the surface.

B1: HCoV-NL63 receptor-binding domain (residues Gln481-Ile616) (domain or fragment)
chain: QHTDINFTATASFGGSCYVCKPHQVNISLNGNTSVCVRTSHFSIRYIYNRVKSGSPGDSSWHIYLKSGTCPFSFSKLNNFQKFKTICFSTVEVPGSCNFPLEATWHYTSYTIVGALYVTWSEGNSITGVPYPVSGI
The Kd is a measure of binding affinity in units of concentration. The low end stands for higher affinity, the high end for lower affinity. Turning to B1, the Kd in assay [1] turned out to be 575 nM; in assay [2], 2610 nM.

B2: SARS-CoV receptor-binding domain (residues Arg306-Leu515) (domain or fragment)
chain: not shown
In assay [1], B2 showed a Kd of 511 nM.

For the origin of these results see paper PMC8754202 (Journal of Virology, 2021).
